Assay results as given in patent US20050032689A1, “Methods for treatment or diagnosis of disease or disorders associated with an APB domain” (New York University, priority 1994, published 2005).

Molecular target: T1, EGF receptor (Homo sapiens, UniProt P00533)
T1 construct: expressed in transfected cells; host or cells: HER14 (NIH 3T3 cells expressing human EGF receptor)
Test: Binding of GST fusion proteins on glutathione-agarose beads to EGF receptor from HER14 cell lysates, immunoblot
Procedure: FIGS. 2A and 2B. Association of GST-Shc 1-209 with the EGF Receptor (EGFR). A, HER14 lysates from either EGF-stimulated (+) or unstimulated (−) cells (5×10^6 cells) were incubated with 3 μg of GST fusion protein immobilized on glutathione-agarose beads. The bound proteins were washed, subjected to SDS-PAGE, transferred to nitrocellulose and immunoblotted with anti-EGF receptor antibody, anti-C (anti-EGFR). HER14 lysate (4×10^5 cells) was run directly on the gel in lanes 5 and 6. B, unstimulated HER14 lysates (5×10^6 cells) were immunoprecipitated with anti-EGFR antibody (mAb 108). The immobilized receptor was then phosphorylated (+) by the addition of 5 mM MnCl2 and 50 μM ATP or left unphosphorylated (−) by adding MnCl2 alone. Bacterial lysates containing 5 μg of GST, GST-Grb7, and GST-Shc 1-209 were then diluted in 1 ml of 1% Triton X-100 lysis buffer, added to the immobilized receptor and incubated at 4° C. for 90 min. The bound proteins were washed and together with 40 μl of the post-binding supernatant separated by SDS-PAGE and transferred to nitrocellulose. The bound fractions (left panel) and supernatants (right panel) were immunoblotted with anti-GST. FIGS. 4A, 4B, 4C and 4D. Binding of Shc fragments to growth factor receptors. A, schematic diagram illustrating the Shc fragments used in binding studies. Full length murine p52^shc is indicated in (i) while (ii)-(vi) were generated as GST fusion proteins for use in receptor binding studies. B, association of various GST fusion proteins with activated EGF receptor (EGFR). Binding was performed as in FIG. 2A with the exception that all lysates were stimulated with EGF. All studies used 3 μg of fusion proteins except for the Shc SH2 where 10 μg was used. Immunoblotting was performed with anti-phosphotyrosine. C, binding of Shc fusion proteins to NIH 3T3 cells expressing a HER1/2 chimera. This chimera consists of the EGF receptor extracellular binding domain and the intracellular region of HER2/neu. After stimulation of these cells with EGF (200 ng/ml) lysates were prepared and binding as well as blotting studies were performed as in B using anti-phosphotyrosine antibody. D, binding of Shc 1-209 to TrkA. Beads containing 10 μg of GST fusion proteins Shc 1-209, phospholipase C-γ (PLC-γ) SH2 (contains both N and C SH2 domains), or GST alone were added to lysates from 2×10^7 PC12 cells stimulated with 50 ng/ml nerve growth factor (lanes 1, 2, and 4). The binding of the same amount of lysate to 2 μg of anti-TrkA antibody is shown as a positive control and to indicate the position of TrkA on the blot (lane 3). Otherwise, the binding and blotting were performed as in B using anti-phosphotyrosine antibody. […]

- EGF receptor binding compared with the Shc SH2 domain (3 μg fusion protein vs 10 μg Shc SH2, EGF-stimulated lysates): comparable or superior
B1: Shc 1-209: Shc amino terminus, first 209 amino acids of murine p52Shc, generated as a GST fusion protein (protein, UniProt P98083 1-209, looked up, fragment)
chain: MDLLPPKPKYNPLRNESLSSLEEGASGSTPPEELPSPSASSLGPILPPLPGDDSPTTLCSFFPRMSNLKLANPAGGRLGPKGEPGKAAEDGEGSAGAALRDSGLLPLLQDMNKLSGGGGRRTRVEGGQLGGEEWTRHGSFVNKPTRGWLHPNDKVMGPGVSYLVRYMGCVEVLQSMRALDFNTRTQVTREAISLVCEAVPGAKGATRRR
modifications: GST fusion
notes: Shc amino terminus, first 209 amino acids of murine p52Shc, generated as a GST fusion protein
- binding to EGF receptor (GST fusion protein, lysates of EGF-stimulated or unstimulated cells): bound only to the activated tyrosine-phosphorylated receptor
